These results are taken from PMC6531468.

Series [1] concerns the target IMP3 KH3-4 (Homo sapiens) (UniProt O00425). As to the kind of experiment: SELEX. The settings on record: round 4.
The target in series [2] is IMP3 KH1-2 (Homo sapiens) (UniProt O00425). Nature of the series: SELEX. The settings on record: round 4.
The target of series [3] is IMP3 KH1-4 (Homo sapiens) (UniProt O00425). As to the kind of experiment: SELEX. Particulars: round 4.
Series [4] has as its target IMP3 RRM1-2 (Homo sapiens) (UniProt O00425). As to the kind of experiment: SELEX. Particulars: round 2.
Series [5] has as its target IMP3 full length (Homo sapiens) (UniProt O00425). As to the kind of experiment: SELEX. Particulars: round 4.
The target is the same in series [6]. Nature of the series: EMSA. Particulars: Hill n 3.1; EMSA: 10 mM Tris-HCl pH 7.5, 150 mM NaCl, 0.5 mM EDTA, 0.5 mM DTT, 0.1% NP-40, 5% glycerol, tRNA+BSA, 5 nM RNA, 30 min RT then ice; ITC/NMR: 20 mM Bis-Tris …. (In EMSA bound probe runs differently from free probe, usually more slowly.)

Sequence of IMP3 full length (Homo sapiens) (O00425 whole entry): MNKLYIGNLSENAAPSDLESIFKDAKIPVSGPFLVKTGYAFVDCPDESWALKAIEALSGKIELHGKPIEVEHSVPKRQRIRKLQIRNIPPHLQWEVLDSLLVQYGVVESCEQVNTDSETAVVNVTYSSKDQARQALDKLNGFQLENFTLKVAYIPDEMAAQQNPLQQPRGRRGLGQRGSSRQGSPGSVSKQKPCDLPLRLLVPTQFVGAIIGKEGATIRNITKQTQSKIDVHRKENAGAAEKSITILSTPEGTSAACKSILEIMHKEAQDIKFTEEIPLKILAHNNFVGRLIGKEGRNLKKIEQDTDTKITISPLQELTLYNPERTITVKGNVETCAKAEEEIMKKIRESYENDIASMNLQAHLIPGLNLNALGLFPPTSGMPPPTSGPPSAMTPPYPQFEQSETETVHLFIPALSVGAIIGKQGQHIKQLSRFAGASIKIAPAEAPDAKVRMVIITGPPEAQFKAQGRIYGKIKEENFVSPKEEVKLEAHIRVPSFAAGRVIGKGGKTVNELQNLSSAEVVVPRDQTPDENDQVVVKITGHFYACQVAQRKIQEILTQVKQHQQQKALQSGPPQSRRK
Sequence of IMP3 KH1-2 (Homo sapiens) (O00425 164-376): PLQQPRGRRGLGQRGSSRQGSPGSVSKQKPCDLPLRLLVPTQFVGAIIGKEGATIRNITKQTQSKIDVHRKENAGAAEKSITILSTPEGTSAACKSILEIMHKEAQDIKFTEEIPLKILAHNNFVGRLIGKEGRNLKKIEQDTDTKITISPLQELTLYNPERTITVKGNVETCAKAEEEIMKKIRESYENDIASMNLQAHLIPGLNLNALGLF
Sequence of IMP3 RRM1-2 (Homo sapiens) (O00425 1-163): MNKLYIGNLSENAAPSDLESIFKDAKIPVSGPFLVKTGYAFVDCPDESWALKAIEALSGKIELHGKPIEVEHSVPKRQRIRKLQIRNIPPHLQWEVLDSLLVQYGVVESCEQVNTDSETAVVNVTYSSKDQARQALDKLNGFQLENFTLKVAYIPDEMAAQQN
Sequence of IMP3 KH1-4 (Homo sapiens) (O00425 164-579): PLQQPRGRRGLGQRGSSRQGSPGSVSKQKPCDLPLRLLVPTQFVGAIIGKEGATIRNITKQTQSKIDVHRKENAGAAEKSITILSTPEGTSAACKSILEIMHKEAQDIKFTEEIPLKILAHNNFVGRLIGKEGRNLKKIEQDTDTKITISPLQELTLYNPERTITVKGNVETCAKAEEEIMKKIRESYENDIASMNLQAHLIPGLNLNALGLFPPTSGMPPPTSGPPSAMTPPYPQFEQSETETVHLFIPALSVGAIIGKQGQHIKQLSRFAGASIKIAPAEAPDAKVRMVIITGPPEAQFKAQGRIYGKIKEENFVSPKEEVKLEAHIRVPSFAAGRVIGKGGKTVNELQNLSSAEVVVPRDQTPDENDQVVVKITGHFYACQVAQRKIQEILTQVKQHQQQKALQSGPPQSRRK
Sequence of IMP3 KH3-4 (Homo sapiens) (O00425 377-579): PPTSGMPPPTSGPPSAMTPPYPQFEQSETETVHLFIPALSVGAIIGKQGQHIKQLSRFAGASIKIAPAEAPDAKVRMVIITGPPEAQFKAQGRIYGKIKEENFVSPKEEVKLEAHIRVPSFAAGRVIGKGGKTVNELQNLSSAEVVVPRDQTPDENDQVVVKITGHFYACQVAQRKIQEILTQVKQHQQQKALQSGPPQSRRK

Regarding AAAUAA [6-mer AAATAA], the binding signal (SELEX z-score, GST-corrected) in series [1] amounted to 3.39.
Take AACACA [6-mer AACACA]: the binding signal (SELEX z-score, GST-corrected) in series [2] is 4.09; in series [3], 2.92; in series [4], 5.77; in series [5] it was 4.2.
Consider AACAUA [6-mer AACATA], for which the binding signal (SELEX z-score, GST-corrected) turned out to be 2.92 in series [2] and 3.48 in series [1].
In turn, AAUAAA [6-mer AATAAA] showed a binding signal (SELEX z-score, GST-corrected) in series [1] of 3.28.
On to AAUAAU [6-mer AATAAT], for which the binding signal (SELEX z-score, GST-corrected) in series [1] was found to be 3.24.
Consider AAUACA [6-mer AATACA], for which the binding signal (SELEX z-score, GST-corrected) worked out at 3.44 in series [2], 2.77 in series [3] and 3.32 in series [1].
AAUAUA [6-mer AATATA] gave a binding signal (SELEX z-score, GST-corrected) in series [1] of 3.67.
AAUCAU [6-mer AATCAT] gave a binding signal (SELEX z-score, GST-corrected) in series [4] of 3.82.
AAUGAA [6-mer AATGAA]: in series [1], the binding signal (SELEX z-score, GST-corrected) amounted to 3.19.
In the case of AAUUAA [6-mer AATTAA], the binding signal (SELEX z-score, GST-corrected) in series [1] was determined as 3.41.
Turning to ACAACA [6-mer ACAACA], the binding signal (SELEX z-score, GST-corrected) was 2.86 in series [2] and 3.86 in series [4].
For the substance ACAAUA [6-mer ACAATA], the binding signal (SELEX z-score, GST-corrected) came out at 3.75 in series [2], 2.68 in series [3] and 3.13 in series [1].
In series [4], ACACAA [6-mer ACACAA] yielded a binding signal (SELEX z-score, GST-corrected) of 4.19.
ACACAC [6-mer ACACAC]: the binding signal (SELEX z-score, GST-corrected) amounted to 3.26 in series [2] and 5.19 in series [4].
With ACACAU [6-mer ACACAT], the binding signal (SELEX z-score, GST-corrected) in series [2] stood at 3.81; in series [3], 3.27; in series [4], 4.49; in series [5] it was 3.99.
As for ACAUAA [6-mer ACATAA], the binding signal (SELEX z-score, GST-corrected) was 3.61 in series [2], 2.92 in series [3] and 3.74 in series [1].
Regarding ACAUAU [6-mer ACATAT], the binding signal (SELEX z-score, GST-corrected) was found to be 2.92 in series [2], 2.88 in series [3] and 3.36 in series [1].
With ACAUCA [6-mer ACATCA], the binding signal (SELEX z-score, GST-corrected) in series [4] was found to be 3.94; in series [5], 4.02.
Consider ACGGCA [6-mer ACGGCA], for which the binding signal (SELEX z-score, GST-corrected) in series [3] was 3.02; in series [5], 4.07.
Take AUAACA [6-mer ATAACA]: the binding signal (SELEX z-score, GST-corrected) stood at 3.77 in series [2], 3.19 in series [3] and 4.15 in series [1].
In series [1], AUAAUA [6-mer ATAATA] displayed a binding signal (SELEX z-score, GST-corrected) of 3.54.
Regarding AUACAU [6-mer ATACAT], the binding signal (SELEX z-score, GST-corrected) turned out to be 3.08 in series [2] and 2.8 in series [3].
In the case of AUAUAA [6-mer ATATAA], in series [1], the binding signal (SELEX z-score, GST-corrected) was 3.89.
As to AUCACA [6-mer ATCACA], the binding signal (SELEX z-score, GST-corrected) in series [4] was determined as 4.39; in series [5] it was 3.5.
Take CAAACA [6-mer CAAACA]: in series [4], the binding signal (SELEX z-score, GST-corrected) came to 3.91.
Consider CAACAC [6-mer CAACAC], for which the binding signal (SELEX z-score, GST-corrected) in series [4] came out at 3.39.
In turn, CAAUCA [6-mer CAATCA] returned a binding signal (SELEX z-score, GST-corrected) in series [4] of 5.47.
CACAAC [6-mer CACAAC] showed a binding signal (SELEX z-score, GST-corrected) in series [4] of 3.4.
With CACACA [6-mer CACACA], the binding signal (SELEX z-score, GST-corrected) was 4.01 in series [2], 3.36 in series [3], 6.79 in series [4] and 4.75 in series [5].
With CACAUA [6-mer CACATA], the binding signal (SELEX z-score, GST-corrected) in series [2] amounted to 3.62; in series [3], 3.19.
As to CAUACA [6-mer CATACA], the binding signal (SELEX z-score, GST-corrected) amounted to 3.49 in series [2], 2.86 in series [3], 3.6 in series [4] and 3.76 in series [5].
CAUCAC [6-mer CATCAC] displayed a binding signal (SELEX z-score, GST-corrected) in series [5] of 3.28.
Still for that read-out and setting: then CAUCAU [6-mer CATCAT], with 3.65.
Consider CAUUCA [6-mer CATTCA], for which the binding signal (SELEX z-score, GST-corrected) in series [4] was 3.79; in series [5], 3.36.
Regarding CGGCAC [6-mer CGGCAC], the binding signal (SELEX z-score, GST-corrected) in series [3] came to 2.99; in series [5], 4.28.
On to CGGCCA [6-mer CGGCCA], for which, in series [3], the binding signal (SELEX z-score, GST-corrected) stood at 2.71.
GCACAC [6-mer GCACAC] had a binding signal (SELEX z-score, GST-corrected) in series [5] of 3.25.
GGCACA [6-mer GGCACA]: the binding signal (SELEX z-score, GST-corrected) was determined as 3.92 in series [3], 3.69 in series [1] and 4.85 in series [5].
As for GGCAUC [6-mer GGCATC], the binding signal (SELEX z-score, GST-corrected) in series [5] came to 3.48.
In series [5], GUCGGC [6-mer GTCGGC] displayed a binding signal (SELEX z-score, GST-corrected) of 3.3.
What is called Kd is the constant that tells how readily two partners part at equilibrium. A lower Kd goes with tighter binding. Turning to HMGA2 WT, the Kd in series [6] is 0.0131 µM.
With UACACA [6-mer TACACA], the binding signal (SELEX z-score, GST-corrected) in series [2] stood at 2.92.
